Laboratory results as given in patent US20260209374A1 (ENOSI THERAPEUTICS, published 2026).
Several values for one entry are separate records, joined by “and”; a condition that tells them apart may be missing. Equal entries are not always repeated.

T1: human soluble TNFR1 (human, UniProt P19438 30-211)
T1 construct: also called hTNFR1; hTNFR-1
T1 sequence: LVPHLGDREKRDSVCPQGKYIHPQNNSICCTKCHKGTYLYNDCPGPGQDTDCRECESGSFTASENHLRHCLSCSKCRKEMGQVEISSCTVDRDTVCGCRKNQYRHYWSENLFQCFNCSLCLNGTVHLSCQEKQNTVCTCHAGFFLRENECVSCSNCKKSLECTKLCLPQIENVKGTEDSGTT

T2: TNFR1 on the cells of the TNF-dependent bioassays (THP1 cells in Examples 4 and 6) (human, UniProt P19438 30-455)
T2 sequence: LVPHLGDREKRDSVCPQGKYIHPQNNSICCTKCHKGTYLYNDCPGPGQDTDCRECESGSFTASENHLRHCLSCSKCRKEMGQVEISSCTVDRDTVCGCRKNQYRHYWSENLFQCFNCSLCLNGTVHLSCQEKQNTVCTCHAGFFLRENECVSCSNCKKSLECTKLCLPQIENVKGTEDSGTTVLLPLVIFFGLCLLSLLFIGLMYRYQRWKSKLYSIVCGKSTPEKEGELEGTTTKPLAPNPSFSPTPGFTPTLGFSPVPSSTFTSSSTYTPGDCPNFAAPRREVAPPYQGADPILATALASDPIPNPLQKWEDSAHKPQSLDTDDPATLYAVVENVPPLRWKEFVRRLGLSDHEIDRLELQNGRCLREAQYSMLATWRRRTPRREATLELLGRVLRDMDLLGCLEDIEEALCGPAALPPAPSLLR

T3: extracellular domain of TNFR-1 (Example 4) (UniProt P19438 30-211, limits assumed)
T3 construct: extracellular domain; also called TNFR1 extracellular domain
T3 sequence (looked up): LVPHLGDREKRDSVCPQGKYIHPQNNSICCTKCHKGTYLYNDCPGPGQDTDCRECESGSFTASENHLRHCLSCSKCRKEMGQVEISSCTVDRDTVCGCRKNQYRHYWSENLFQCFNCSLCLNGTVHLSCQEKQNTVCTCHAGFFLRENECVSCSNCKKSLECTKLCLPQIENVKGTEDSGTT

T4: human soluble TNFR2 (human, UniProt P20333 23-257)
T4 construct: also called hTNFR2; TNF receptor type 2
T4 sequence: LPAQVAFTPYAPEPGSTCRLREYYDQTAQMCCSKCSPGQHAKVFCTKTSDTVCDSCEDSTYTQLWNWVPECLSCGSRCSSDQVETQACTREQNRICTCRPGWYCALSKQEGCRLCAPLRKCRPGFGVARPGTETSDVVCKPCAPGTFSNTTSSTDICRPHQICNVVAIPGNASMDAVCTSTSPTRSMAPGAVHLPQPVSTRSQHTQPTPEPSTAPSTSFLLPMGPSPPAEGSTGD

T5: Human TNFR1/CD120a protein, His & Avi tag (human, UniProt P19438 30-211)
T5 construct: Captured on HIS1K or streptavidin biosensors; also called TNFR1-His-avi tag protein; immobilized soluble human TNFR1; not shown: His tag and Avi tag
T5 sequence: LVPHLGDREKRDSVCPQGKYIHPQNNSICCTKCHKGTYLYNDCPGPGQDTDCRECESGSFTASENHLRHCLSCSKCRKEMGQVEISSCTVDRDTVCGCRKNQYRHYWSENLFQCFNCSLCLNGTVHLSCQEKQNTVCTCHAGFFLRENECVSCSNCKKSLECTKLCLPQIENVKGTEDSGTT


Tests used:
[1] = target: T1, human soluble TNFR1; test: SPR (format not described)
[2] = target: T2, TNFR1 on the cells of the TNF-dependent …; test: cell-based or functional assay
[3] = target: T3, extracellular domain of TNFR-1 (Example …); test: competition assay, Vhh inhibition of TNF-α binding to TNFR1 extracellular domain; competitor TNF-α
Method: Competition assays of Vhh inhibition of TNF-α binding to TNFR1 extracellular domain also were performed as described in Richter et al. (2019).

[4] = target: T3, extracellular domain of TNFR-1 (Example …); test: SPR (Biacore method)
[5] = target: T2, TNFR1 on the cells of the TNF-dependent …; test: cell-based or functional assay; remark: listed apart in the source
[6] = target: T1, human soluble TNFR1; test: SPR; VHH-Fc captured on Series S Protein A sensor chip, human soluble TNFR1 as analyte (0.781-100 nM), 1:1 binding fit
Source text: (§1) Series S Sensor Chip Protein A (Cytiva #29127556) was used to immobilize the Fc portion of the VHH/Fc proteins. The human soluble TNFR1 and TNFR2 are used for the SPR binding flow.

[7] = target: T1, human soluble TNFR1; test: SPR; VHH-Fc captured by anti-human IgG (Fc) antibody on CM5 sensor chip, human soluble TNFR1 as analyte
Source text: CM5 sensor chip (Cytiva #BR100530) was coated with an anti-human IgG (Fc) antibody (Cytiva #29234600) to capture the EN1206-BV and EN1208-BV. The human soluble TNFR1 was used as analyte for binding flow.

[8] = target: T4, human soluble TNFR2; test: SPR; VHH-Fc captured by anti-human IgG (Fc) antibody on CM5 sensor chip, TNFR2 as analyte
[9] = target: T4, human soluble TNFR2; test: SPR; VHH-Fc captured on Series S Protein A sensor chip, human soluble TNFR2 as analyte
Source text: as §1

[10] = target: T5, Human TNFR1/CD120a protein, His & Avi …; test: BLI, Octet RED96; TNFR1-His-Avi immobilised on anti-penta-His (HIS1K) biosensor, EN1206-mv 0.412-100 nM
Method: An Octet instrument RED96 was used for the assay. Octat anti-penta His biosensor (HIS1K) and Octet Streptavidin (SA) biosensor were used to immobilize the TNFR1-His-avi tag protein. […] Octet RED96 was used to measure the binding affinity of EN1206-mv and EN1208-bv. […] A dose-dependent binding of EN1208-bv to the immobilized TNFR1 on SA chip was detected within the concentration range of 3.7 nm to 300 nM (FIG. 11B).
The experiments started with the determination of the binding specificity and affinity of EN1206 and EN1208 to the immobilized human soluble TNFR1. A concentration-dependent binding of EN1206 and EN1208 to the TNFR1 was observed, respectively (Table 15, FIGS. 11A-11B). Due to a lack of detectable dissociation of EN1208-BV after its binding to the immobilized TNFR1 within the dissociation assay time frame (~5 min), the on-rate (ka) and off-rate (kd) could not be calculated. Thus, an affinity (KD) for EN1208 was estimated (Table 15).

Row | Binder | TNF Dependent Bioassay (IC50): VCAM [2] | Kd [4] | relative gene expression of IL8/CXCL8 (qPCR, THP1 cells, TNF 100 ng/ml), 1 nM inhibitor, against baseline [5] | Kd [6] | fold improvement over Etanercept in inhibition of IL-8 expression, TNF-stimulated THP1 cells (qPCR) [5] | fold improvement over Etanercept in inhibition of TNF expression, TNF-stimulated THP1 cells (qPCR) [5] | relative potency against 206dAb, suppression of TNF-induced expression of IL8/CXCL8 in THP1 cells, 1 nM [5] | relative potency against 206dAb, suppression of TNF-induced expression of TNF in THP1 cells, 1 nM [5] | also measured
1 | EN-1000-206 (VHH) VHH: EVQLLESGGGLVQPGGSLRLSCAASGFTFAHETMVWVRQAPGKGLEWVSHIPPDGQDPFYADSVKGRFTISRDNSKNTLYLQMNSLRAEDTAVYHCALLPKRGPWFDYWGQGTLVTVSS | – | – | 8 fold | – | – | – | – | – | –
2 | EN-1206-Fc-BV (Fc fusion, Homodimeric, bivalent; In some paragraphs 'EN1206' also means the HSA fusion or the dAb itself; also called EN1206-BV; EN1206 bivalent) EVQLLESGGGLVQPGGSLRLSCAASGFTFAHETMVWVRQAPGKGLEWVSHIPPDGQDPFYADSVKGRFTISRDNSKNTLYLQMNSLRAEDTAVYHCALLPKRGPWFDYWGQGTLVTVSSDKTHTCPPCPAPEAAGGPSVFLFPPKPKDTLYITREPEVTCVVVDVSHEDPEVKFNWYVDGVEVHNAKTKPREEQYNSTYRVVSVLTVLHQDWLNGKEYKCKVSNKALGAPIEKTISKAKGQPREPQVYTLPPSRDELTKNQVSLTCLVKGFYPSDIAVEWESNGQPENNYKTTPPVLDSDGSFFLYSKLTVDKSRWQQGNVFSCSVMHEALHNHYTQKSLSLSPGK | – | – | 1.75 fold | 0.185 nM | 5.9 fold | 15 fold | 7 fold | 6.5 fold | Kd [7]: 1.49 nM; binding result [8]: no binding
3 | EN-1206-Fc-MV (Fc fusion, One-armed (monovalent) knob-into-hole heterodimer; the leader is cleaved on expression; also called EN1206-MV; EN1206-mv) chain 1: EVQLLESGGGLVQPGGSLRLSCAASGFTFAHETMVWVRQAPGKGLEWVSHIPPDGQDPFYADSVKGRFTISRDNSKNTLYLQMNSLRAEDTAVYHCALLPKRGPWFDYWGQGTLVTVSSDKTHTCPPCPAPEAAGGPSVFLFPPKPKDTLYITREPEVTCVVVDVSHEDPEVKFNWYVDGVEVHNAKTKPREEQYNSTYRVVSVLTVLHQDWLNGKEYKCKVSNKALGAPIEKTISKAKGQPREPQVYTLPPSRDELTKNQVSLWCLVKGFYPSDIAVEWESNGQPENNYKTTPPVLDSDGSFFLYSKLTVDKSRWQQGNVFSCSVMHEALHNHYTQKSLSLSPGK chain 2: DKTHTCPPCPAPEAAGGPSVFLFPPKPKDTLYITREPEVTCVVVDVSHEDPEVKFNWYVDGVEVHNAKTKPREEQYNSTYRVVSVLTVLHQDWLNGKEYKCKVSNKALGAPIEKTISKAKGQPREPQVYTLPPSRDELTKNQVSLSCAVKGFYPSDIAVEWESNGQPENNYKTTPPVLDSDGSFFLVSKLTVDKSRWQQGNVFSCSVMHEALHNHYTQKSLSLSPGK | – | – | 1.75 fold | 0.388 nM | 10.6 fold | 6.8 fold | 9.3 fold | 9 fold | binding result [9]: no binding; Kd [10]: 0.314 nM; koff [10]: 0.000284 s⁻¹; kon [10]: 903000 M⁻¹ s⁻¹

Second part, led by results:

Row | TNF Dependent Bioassay (IC50): VCAM [2] | Kd [4] | relative gene expression of IL8/CXCL8 (qPCR, THP1 cells, TNF 100 ng/ml), 1 nM inhibitor, against baseline [5] | Kd [6] | fold improvement over Etanercept in inhibition of IL-8 expression, TNF-stimulated THP1 cells (qPCR) [5] | fold improvement over Etanercept in inhibition of TNF expression, TNF-stimulated THP1 cells (qPCR) [5] | relative potency against 206dAb, suppression of TNF-induced expression of IL8/CXCL8 in THP1 cells, 1 nM [5] | relative potency against 206dAb, suppression of TNF-induced expression of TNF in THP1 cells, 1 nM [5] | Binder | also measured
4 | 0.3 nM | 0.00066 nM | – | – | – | – | – | – | Vhh-4 (VHH) VHH: EVQLLESGGGLVQPGGSLRLSCAASGFTFAHETMVWVRQAPGKGLEWVSHIPPDGQDPFYADSVKGRFTISRDNSKNTLYLQMNSLRAEDTAVYHCALLPKRGPWFDYWGQGTLVTVSS | Kd [1]: 0.407 nM and 0.3 nM to 0.5 nM (2×); IC50 [3]: ~1 nM
5 | 3 nM | 1000 nM | – | – | – | – | – | – | Vhh-2 (VHH, not shown: small tags and cut ends) VHH: EVQLLESGGGLVQPGGSLRLSCAASGFTFSQYRMHWVRQAPGKSLEWVSSIDTRGSSTYYADPVKGRFTISRDNSKNTLYLQMNSLRAEDTAVYYCAKAVTMFSPFFDYWGQGTLV | –
